Reference: patent US20140154817A1 (WALTER AND ELIZA HALL INSTITUTE OF MEDICAL RESEARCH, published 2014)
Bridge positions count the residues as written; N and C are the ends. Ends that are not written are not given here. * marks the point of attachment. Biotin = O=C1N[C@H]2[C@H](CS[C@H]2CCCCC(=O)*)N1

B1: IGF-1R classical α-chain C-terminal peptide (residues 691-706) (peptide)
peptide: VFENFLHNSIFVPRPE
notes: Mature IGF-1R numbering; also called IGF-1R αCT; IGF1R-αCT
B2: S519C16 peptide (peptide)
peptide: GSLDESFYDWFERQLG
notes: Synthetic peptide, AusPep, >90% purity; also called Site 1 peptide, the 16 C-terminal residues of S519
B3: IR485 pre-complexed with a 10-fold molar ratio of IGF-1R classical αCT peptide (other)
chain: HLYPGEVCPGMDIRNNLTRLHELENCSVIEGHLQILLMFKTRPEDFRDLSFPKLIMITDYLLLFRVYGLESLKDLFPNLTVIRGSRLFFNYALVIFEMVHLKELGLYNLMNITRGSVRIEKNNELCYLATIDWSRILDSVEDNHIVLNKDDNEECGDICPGTAKGKTNCPATVINGQFVERCWTHSHCQKVCPTICKSHGCTAEGLCCHSECLGNCSQPDDPTKCVACRNFYLDGRCVETCPPPYYHFQDWRCVNFSFCQDLHHKCKNSRRQGCHQYVIHNNKCIPECPSGYTMNSSNLLCTPCLGPCPKVCHLLEGEKTIDSVTSAQELRGCTVINGSLIINIRGGNNLAAELEANLGLIEEISGYLKIRRSYALVSLSFFRKLRLIRGETLEIGNYSFYALDNQNLRQLWDWSKHNLTTTQGKLFFHYNPKLCLSEIHKMEEVSGTKGRQERNDIALKTNGDKASCENELLKFSYIRTSFDKISDDDDKEQKLISEEDLN
peptide: VFENFLHNSIFVPRPE
notes: Non-covalent receptor fragment and peptide mixture in the ITC cell; also called IR485 + (10 × IGF1R-αCT)
B4: IR485 pre-complexed with a 10-fold molar ratio of IR classical αCT peptide (other)
chain: B3 chain
peptide: TFEDYLHNVVFVPRPS
notes: Non-covalent receptor fragment and peptide mixture in the ITC cell; also called IR485 + (10 × IR-αCT)
B5: IR485 construct of human insulin receptor (receptor)
chain: B3 chain
notes: The tag was not removed for ITC; Expressed in Lec8 mutant CHO cells; also called insulin mini-receptor IR485; first three domains of IR (L1-CR-L2)
B6: N-terminally biotinylated IR αCT peptide 698-719, wild type (peptide)
peptide: Biotin-ESSFRKTFEDYLHNVVFVPRPS
notes: Genscript, >75% purity; also called wt; native peptide
B7: S519N20 peptide (peptide)
peptide: SLEEEWAQVECEVYGRGCPS
modifications: disulfide 11-18 (inferred)
notes: Synthetic peptide, AusPep, >90% purity; also called Site 2 peptide, the 20 N-terminal residues of S519
B8: S519 peptide (peptide)
peptide: SLEEEWAQVECEVYGRGCPSGSLDESFYDWFERQLG
modifications: disulfide 11-18 (inferred)
notes: 36-residue synthetic peptide, Activotec, >85% purity; also called insulin mimetic peptide S519
B9: IR classical α-chain C-terminal peptide (residues 704-719) (peptide)
peptide: TFEDYLHNVVFVPRPS
notes: Mature IR-A numbering; also called IR αCT; IR-αCT

Assays:
[1] = molecular target: T1, Human IGF-I (human, UniProt P05019 49-118); assay: ITC, 25 °C, IGF-1R αCT peptide 200 µM titrated into IGF-I 20 µM
T1 construct: mature
Experimental: (§1) ITC experiments were performed using a VP-ITC isothermal titration calorimeter (MicroCal Inc., USA) with the calorimeter cell held at 25° C. All samples were degassed prior to injection or placement into the cell, and the instrument was temperature equilibrated prior to the start of the injections. In all experiments the volume of sample placed in the cell was 1.4 ml and the titrant was injected in 7 μl volumes over 14 s at 3 min intervals, with the total number of injections being 40. The sample contents were stirred at a speed of 310 rpm over the duration of the titration. […] Data were analyzed using the instrument's software incorporated within the Origin 7 software (OriginLab, USA) and in all cases fitted as a single-site interaction using the methodologies outlined in the instrument's manual.

[2] = molecular target: B5; assay: ITC, 25 °C, peptide titrated into IR485, single-site fit, mean of three
Experimental: as §1

[3] = molecular target: B5; assay: ITC, 25 °C, peptide titrated into IR485
[4] = molecular target: B5; assay: ITC, 25 °C, S519C16 titrated into IR485 pre-mixed with a 10-fold molar ratio of IR αCT peptide (competitor)
Experimental: as §1

[5] = molecular target: B5; assay: ITC, 25 °C, S519C16 titrated into IR485 pre-mixed with a 10-fold molar ratio of IR αCT peptide (competitor); apparent Kd; IR485 in the presence of a 10-fold molar ratio of IR αCT peptide
Experimental: as §1

[6] = molecular target: T1, Human IGF-I; assay: ITC, 25 °C, IGF-I titrated into IR485 pre-mixed with 10-fold IGF-1R αCT peptide
Experimental: as §1

[7] = molecular target: T2, Zinc-free porcine insulin (porcine, UniProt P01315 88-108; P01315 25-54); assay: ITC, 25 °C, hormone titrated into IR485 pre-mixed with 10-fold IGF-1R αCT peptide
T2 construct: mature; Made zinc-free by dialysis against 0.1% acetic acid and lyophilisation; also called ZFP-insulin
Experimental: as §1

[8] = molecular target: T1, Human IGF-I; assay: ITC, 25 °C, IGF-I titrated into IR485 pre-mixed with 10-fold IR αCT peptide
Experimental: as §1

[9] = molecular target: T2, Zinc-free porcine insulin; assay: ITC, 25 °C, hormone titrated into IR485 pre-mixed with 10-fold IR αCT peptide
Experimental: as §1

[10] = molecular target: T1, Human IGF-I; assay: ITC, 25 °C, IGF-I 100 µM titrated into IR485 10 µM
Experimental: as §1

[11] = molecular target: T2, Zinc-free porcine insulin; assay: ITC, 25 °C, ZFP-insulin 50 µM titrated into IR485 5 µM
Experimental: as §1

[12] = molecular target: B5; assay: ITC, about 25 °C, peptide titrated into IR485
Experimental: (§2) The insulin mini-receptor IR485 construct was produced and purified as previously described (Lou et al., 2006), omitting the final ion-exchange chromatography step. Isothermal titration calorimetry (ITC) experiments were performed using a VP-ITC isothermal titration calorimeter (MicroCal Inc., USA) with the calorimeter cell held at about 25° C. The ITC cell contained insulin mini-receptor IR485 prepared at about 10 μM concentration in Tris-buffered saline plus azide (TBSA; about 24.8 mM Tris-HCl (pH 8.0), 137 mM NaCl, 2.7 mM KCl, and 0.02% sodium azide), and the syringe contained the peptide prepared at about 60 μM concentration in TBSA. All samples were degassed prior to injection or placement into the cell, and the instrument was temperature equilibrated prior to the start of the injections.
(§3) In all experiments the volume of the insulin mini-receptor IR485 sample placed in the cell was about 1.4 ml and the titrant was injected in about 7 μl volumes over 14 s at 3 min intervals, with the total number of injections being 40. The sample contents were stirred at a speed of about 310 rpm over the duration of the titration. All titrants were first injected into a solution of TBSA alone in order ascertain the heat of dilution, which was then subtracted from the data of interest as appropriate. Each experiment was performed three times, except for that employing the native peptide, which was performed twice. Data were analyzed using the instrument's software incorporated within the Origin 7 software (OriginLab, USA) and in all cases fitted as a single-site interaction using the methodologies outlined in the instrument's manual.

[13] = molecular target: B5; assay: ITC, about 25 °C, peptide about 60 µM titrated into IR485 about 10 µM
Experimental: as §2, §3

[14] = molecular target: B5; assay: ITC, mutant αCT peptides 698-719 titrated into IR485
Experimental: as §2
as §3, with “All titrants were first injected into a solution of TBSA alone in order ascertain the heat of dilution, which was then subtracted from the data of interest as appropriate. Each experiment was performed three times, except for that employing the native peptide, which was performed twice.” left out

[15] = molecular target: B5; assay: ITC, 25 °C, S519N20 50 µM titrated into IR485 5 µM
Experimental: as §1

[16] = molecular target: T2, Zinc-free porcine insulin; assay: ITC, 25 °C, IR αCT peptide 200 µM titrated into ZFP-insulin 20 µM
Experimental: as §1

T2 sequence (P01315 88-108 limits assumed, chain 1 of 2): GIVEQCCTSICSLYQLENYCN
T2 sequence (P01315 25-54 limits assumed, chain 2 of 2): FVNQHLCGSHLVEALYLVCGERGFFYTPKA

Binder	TΔS° [12] [kcal/mol]	ΔG° [12] [kcal/mol]	ΔH° [12] [kcal/mol]	Kd [13] [µM]	other results
B1					Kd [1]: > 1000 µM; Kd [2]: 17.6 µM
B2					-TΔS^0 [3]: 2.87 kcal/mol; Kd [3]: 0.0026 µM; ΔH^0 [3]: -14.6 kcal/mol; -TΔS^0 [4]: -2.63 kcal/mol; ΔH^0 [4]: -7.89 kcal/mol; Kd [5]: 0.016 µM
B3					Kd [6]: 0.022 µM; Kd [7]: 0.0057 µM
B4					Kd [8]: 0.49 µM; Kd [9]: 0.017 µM
B5					Kd [10]: > 1000 µM; Kd [11]: > 1000 µM
B6	-3.35	-8.01	-11.5	1.34	
Biotin-ESSFYKTFEDYLHNVVFVPRPS [N-terminally biotinylated IR αCT peptide 698-719, R702Y]	-2.87	-9	-12	0.249	
Biotin-ESSFWKTFEDYLHNVVFVPRPS [N-terminally biotinylated IR αCT peptide 698-719, R702W]	-0.717	-8.89	-8.37	0.309	
Biotin-ESSFRKWFEDYLHNVVFVPRPS [N-terminally biotinylated IR αCT peptide 698-719, T704W]	2.63	-9.13	-6.21	0.201	
Biotin-ESSFRKYFEDYLHNVVFVPRPS [N-terminally biotinylated IR αCT peptide 698-719, T704Y]	-2.63	-8.37	-11	0.74	
Biotin-ESSFYKWFEDYLHNVVFVPRPS [N-terminally biotinylated IR αCT peptide 698-719, R702Y/T704W]	-1.2	-10.6	-11.7	0.018	fold increase in affinity against the wild type peptide [14]: ≤ 100 fold
B7					Kd [15]: > 1000 µM
B8					-TΔS^0 [3]: 5.74 kcal/mol; Kd [3]: 0.011 µM; ΔH^0 [3]: -16.5 kcal/mol
B9					Kd [16]: > 1000 µM; Kd [2]: 3.9 µM
TFEDYLHNVVAVPRPS (also called IR αCT.714A; IR-αCT.714A) [F714A mutant of the IR classical αCT peptide]					Kd [2]: 6.5 µM
